Test: soluble on expression in E. coli; label from the status in PepcDB or PDB records

Sequence: MGSDKIHHHHHHMDVRFINEQTIMIYFENKISEETYRNVTAMVRWIREKEILEIQDIVPSYRAVLIYFDEQAITSSKLIENLELNKFNEKNVHAVNQTNRIIKIPVQYGGTYGPDIEEVAKHNRITVEQVIEKHTSKPYLIYMLGFMPGFPYLGGLDEQLHTPRRNQPRLKIHAGSVGIANNQTGLYPSDSPGGWQIIGRTPLKVFSSEREPMSMYEAGEWIQFYAIDEQKFIQIERDISDGNFNVDDWVVIENVN
- soluble on expression in E. coli: not soluble

Sequence: MSAKFQQETLKSRFAQAKVLVVGDVMLDRYWFGDVSRISPEAPVPVAKIGRIDQRAGGAANVARNIASLGGRAGLLSVTGNDEAADALDALMVQDGVASYLMRDKQIATTVKLRVVARNQQLIRLDFEEHPNCEVLEQIKQKYREILPEYDAIIFSDYGKGGLSHISDMIDWAKHAGKTVLIDPKGDDYEKYVGATLITPNRAELKEVVGSWKNESELTEKAQNLRRHLDLTAVLLTRSEEGMTLFSEGEPIYQPTRAQEVYDVSGAGDTVIAGMGLGLAAGCTMPEAMYLANTAAGVVVAKLGTAVCSFAELIKALSGQSTM
- soluble on expression in E. coli: not soluble

Sequence: MIISAEGDVSIHHCFEAMLISLQEDYRQNTLRQLSRDDIKAGINYVKHYGKYKERTVRVLITALEAPQLYTACFSSNHGIKELAYQLEALGENRTRITYSYDYHPLDIFQKANQFIVGKLFKKSLERQSQAQLAALIQYAKQLQQPSSL
- soluble on expression in E. coli: not soluble

Sequence: MGSTSTPDSSTNRLQDKVAIITGGAGGIGETTAKLFVRYGAKVVIADIADDHGQKVCNNIGSPDVISFVHCDVTKDEDVRNLVDTTIAKHGKLDIMFGNVGVLSTTPYSILEAGNEDFKRVMDINVYGAFLVAKHAARVMIPAKKGSIVFTASISSFTAGEGVSHVYTATKHAVLGLTTSLCTELGEYGIRVNCVSPYIVASPLLTDVFGVDSSRVEELAHQAANLKGTLLRAEDVADAVAYLAGDESKYVSGLNLVIDGGYTRTNPAFPTALKHGLA
- soluble on expression in E. coli: soluble

Sequence: MSLSLRDEALEMHKRNQGKLEVKPNVKVTNKEELSLAYSPGVAEPCKDIYEDKRKVYDYTIKGNTVAVITDGTAVLGLGNIGPEASIPVMEGKAVLFKSFAGINGVPIALNTTDTEEIIKTVKLLEPNYGGINLEDISAPRCFEIEERLKKETNIPVFHDDQHGTAIVTMAGLVNALRVVNKDIAKIKVVLNGAGAAGIAIVKLLYAYGVRNMVMCDSRGAIFEGRSYGMNPTKDVVAKWTNKDKIEGSLEEVVKDADVFIGVSVANALSQDMVKSMADNPIIFAMANPNPEIIPDDAKAAGARVVGTGRSDYPNQINNVLAFPGIFRGALEVEATHINEEMKKAAVEAIADLIDSSELNEDYCIPGPFDKRVAPSVARNVAKAAMESGVARIEVDPQDVYDKTMKLTDLQEGHHHHHH
- soluble on expression in E. coli: soluble

Sequence: MGSDKIHHHHHHMIAIEEIGRITPDNLGLVTVLAGEDLGQYAQMKEKLFQVIGFNKDDLAYSYFDLSEEDYQNAELDLESLPFLSDYKVVIFDQFQDITTDKKTYLDEQAMKRFEAYLQNPVDTTRLVICAPGKLDGKRRLVKLLKRDARVLEANTLKESDLKTYFQKYAHQEGLVFEAGVFDELLIKSNYDFSDTLTNIAFLKSYKTDGHISSNDVREAIPKSLQDNIFDLTQDVLLGRIDLARDLVRDLRLQGEDEIKLIAIMLGQFRMFLQVKILASKGKSESQIVSELSHYIGRKINPYQVKFAVRDSRNLPLAFLKEAIRILIETDYAIKRGTYDKDYLFDLALLKIAHKKP
- soluble on expression in E. coli: not soluble

Sequence: MGSDKIHHHHHHMKLRNLLPLLGLMASAAHADAVTIQSCGVSQVFDKTPSRAITLNQQATEVMLALGLQEAMVGTAYIDDAIPAQWNDAYESVPVLAEKYPAAEVVLAQEPDFLFAGFGSAFSEDNLGAAEKWHDLGIGTYLVDASCKDKHLQDVPLTVAPIFEDIETVGKIFNVEDRANALIDTLQQRLDSVKAAPSGAGQTAFIYDSGAETPFSIGCCGGPALLASLTGLQSISSDVPGTWVDLSWEHVVAADPDVILLIEADWSTAAEKRAHMEADPVLSALRAVKEGRFVTVPFSETLLGMRFADGVETVNNQLAKLP
- soluble on expression in E. coli: not soluble

Sequence: APPGPPASGPCADLQSAINAVTGGPIAFGNDGASLIPADYEILNRVADKLKACPDARVTINGYTDNTGSEGINIPLSAQRAKIVADYLVARGVAGDHIATVGLGSVNPIASNATPEGRAKNRRVEIVVN
- soluble on expression in E. coli: soluble

Sequence: MSQFSKDQVQDMYYLSPMQEGMLFHAILNPGQSFYLEQITMKVKGSLNIKCLEESMNVIMDRYDVFRTVFIHEKVKRPVQVVLKKRQFHIEEIDLTHLTGSEQTAKINEYKEQDKIRGFDLTRDIPMRAAIFKKAEESFEWVWSYHHIILDGWCFGIVVQDLFKVYNALREQKPYSLPPVKPYKDYIKWLEKQDKQASLRYWREYLEGFEGQTTFAEQRKKQKDGYEPKELLFSPSEAETKAFTELAKSQHTTLSTALQAVWSVLISRYQQSGDLAFGTVVSGRPAEIKGVEHMVGLFINVVPRRVKLSEGITFNGLLKRLQEQSLQSEPHQYVPLYDIQSQADQPKLIDHIIVFENYPLQDAKNEESSENGFDMVDVHVFEKSNYDLNLMASPGDEMLIKLAYNENVFDEAFILRLKSQLLTAIQQLIQNPDQPVSTINLVDDREREFLLTGLNPPAQAHETKPLTYWFKEAVNANPDAPALTYSGQTLSYRELDEEANRIARRLQKHGAGKGSVVALYTKRSLELVIGILGVLKAGAAYLPVDPKLPEDRISYMLADSAAACLLTHQEMKEQAAELPYTGTTLFIDDQTRFEEQASDPATAIDPNDPAYIMYTSGTTGKPKGNITTHANIQGLVKHVDYMAFSDQDTFLSVSNYAFDAFTFDFYASMLNAARLIIADEHTLLDTERLTDLILQENVNVMFATTALFNLLTDAGEDWMKGLRCILFGGERASVPHVRKALRIMGPGKLINCYGPTEGTVFATAHVVHDLPDSISSLPIGKPISNASVYILNEQSQLQPFGAVGELCISGMGVSKGYVNRADLTKEKFIENPFKPGETLYRTGDLARWLPDGTIEYAGRIDDQVKIRGHRIELEEIEKQLQEYPGVKDAVVVADRHESGDASINAYLVNRTQLSAEDVKAHLKKQLPAYMVPQTFTFLDELPLTTNGKVNKRLLPKPDQDQLAEEWIGPRNEMEETIAQIWSEVLGRKQIGIHDDFFALGGHALKAMTAASRIKKELGIDLPVKLLFEAPTIAGISAYLKNGGSDGLQDVTIMNQDQEQIIFAFPPVLGYGLMYQNLSSRLPSYKLCAFDFIEEEDRLDRYADLIQKLQPEGPLTLFGYSAGCSLAFEAAKKLEEQGRIVQRIIMVDSYKKQGVSDLDGRTVESDVEALMNVNRDNEALNSEAVKHGLKQKTHAFYSYYVNLISTGQVKADIDLLTSGADFDIPEWLASWEEATTGVYRMKRGFGTHAEMLQGETLDRNAEILLEFLNTQTVTVSKGEFEAYVEQKLISEEDLNSAVDHHHHHH
- soluble on expression in E. coli: soluble

Sequence: MGSDKIHHHHHHMEMDERFKDKWYLVKYKFFSNPFYKDFDVYDSSNNVVFTARMNALNPVTRDIVVYEVNKARSEILLISGKHFIRWPNNFEMTSIATREKIGTFRNGPAGWAVLDEYGRQVAILKRIEDPSGAIMYQIRMDSTSVCEYRFINIITPVIMIDFPDESIFSKKMGIGLALVLGYQSVAFNYTYQGW
- soluble on expression in E. coli: not soluble

Sequence: MPTPDFVLQLREKIGNDPLFLPGVTAVVIKDVPEGAPITAVPEVLLVKRADNGEWTPVTGIVDPGEQPHSAAVREVKEETGLDVTVEALLGVGAVGPVTYPNGDVSHYMDTAMRCEVVGDSTPRIGDDENTEVRWFSVMQMPPMKPRFRLVVGDAVAQLRRPEGFRPRMGYEKRERRR
- soluble on expression in E. coli: not soluble

Sequence: MQFIKNLQLNKKKDSDSSEQVLTNKKNKMKYEDFNFIRTLGTGSFGRVILATYKNGNYPPVAIKRFEKCKIIRQKQVDHVFSERKILNYINHPFCVNLHGSFKDDSYLYLVLEFVIGGEFFTFLRRNKRFPNDVGCFYAAQIVLIFEYLQSLNIVYRDLKPENLLLDKDGFIKMTDFGFAKIVETRTYTLCGTPEYIAPEILLNVGHGKAADWWTLGIFIYEILVGCPPFYANEPLLIYQKILEGIIYFPKFLDNNCKHLMKKLLSHDLTKRYGNLKKGAQNVKEHPWFSNIDWVNLLNKNVEVPYKPKYKNIFDSSNFERVQEDLTIADKITNENDPFYDW
- soluble on expression in E. coli: not soluble

Sequence: MQGLTATLLPFGATLAKLTFPDKNGKNQDLVLGFDTIDEFEKDAASIGKTVGRVANRIKNSTLHFDGKQYTMTPNNGPHYLHGGPNGLGYRKWEVVRHAPESVSFSVRANEQDDGLPGDAKIDVTYTVNDRNQLIIEHHATCDTPGLLALTNHAYWNLDGSDTVAEHFLEMEADEFVEVDDTFCPTGAIRSVTDTGFDFRSGKQLKESGKDAEELLDLDNDLVITKKTP
- soluble on expression in E. coli: not soluble

Sequence: MHFYKYGVLINQLSDSFEWRVAFLDGSVSDHCCITVPSEKFNFPPTPGATVKAKFEHANSFLPSLVAQCGSFEWFRDVTVVNSKVVIFAIVHFSNECLERDPFKINGMDYSIIENENTDFQKIVLPTRVLQTSITSRSNLQNTDTPFIYRIGVCWEPISFENGVTVNWRYYADFPITPIFELYYRETTLPYIAESMVYGVLEGVVIAENDHGALFWTPKMGCAILPSTSLDTPMPSLGSVHVILVKRCIPENSFGFSCSYELLSSFRSTEWPNLKVITDQITRKVYIEANASCRSMMENQDFPSMNVPHIGKVFRGLQQYRDKLSAGHLYDFRMEFQKEEGSFVPTIVDLCLEEDEMVDCRVVYISNETSTYFAVLDPSSNSFDRFKQSIDYIAIPFRVLFCANGVHVKNEELLLNSYKVRVRVPRNRHDVVNAIHVEHVIQSPKDPAYFITNGSVWLRTTVKFQNASRYELLCPLLEQKIIDVNGVTAAMSLTQEFTVHAQFVLMERNVPVFVVRQLASTVREHPRTTNYPSRSLNLSYEVSGALARTNPNGQLSAADNNIVLINDSISLDHNLPDTGEYPTILNESSFERQLLFDNQSIADSASTSGDFILTESVYESSSAASTCTVIDRNDARFSALNDDSNILISESWLDSTNQHSETTMDTPEIITESFYESTHDQASSRASTVDRLASDVDKISIGRPDYSPPPRRRIFGYSTPGDRVRPRNSYGSSSSGSLNGRPKRRAPYGFRQIRNITPHNVLLRDIIYNNINNRKMFVEQNKNAILKCWNRLPLAQVTRTTKLSVTVIAVESIKFPPSFDETCIKGLVRFVALGVGVDINLRNMSIVVPIGGKFNNLPKSFQLGETYRVYHFSSKVDRICRLGGFSFGLKGGMRNEEPPDRNNWFSDPQTVNGRDGQSYLRCTVNAERPANAEIESDFFELWSTTALPGFIIVEKVPQLMKHLNEELLDPDVHSRFTYSCVIEPLAGGPVEASILKDLKYDEEFCIFWRLVVEFSDTVPLPRLIIKSKIYVPPPPVVPVYVTPFTVNDFGCWETHRINSILHQARIDRLRAAGHMRVKMLDGPDMKPEIEIRKVDVNTRREKMFTAFDALLEKLPQLHSEGILEYVLEDDLREKIEYLLPMTDDNHKFQFRARNDSLTIGLNYLTDMLTKGKVYKMLYEKQEYVPLLKVLSDCIGLNTTYIKKTDAVTMMLQFMYRNELHTYM
- soluble on expression in E. coli: not soluble

Reference: the DeepSol protein solubility set
